Assay results published in the Immune Epitope Database (IEDB).

What was measured:
HLA-A*68:02 = assay: IEDB peptide-MHC binding, cellular MHC/competitive/fluorescence; ≥ and ≤ were set here for values at or beyond the usual limits of such assays
HLA-A*02:01 = assay: IEDB peptide-MHC binding, purified MHC/competitive/radioactivity; ≥ and ≤ were set here for values at or beyond the usual limits of such assays
HLA-A*02:03 = assay: as above
HLA-A*02:02 = assay: as above
HLA-A*02:06 = assay: as above
[1] = source organism: Mammarenavirus choriomeningitidis
[2] = source organism: Vaccinia virus WR
[3] = source organism: Hepacivirus hominis
[4] = source organism: Influenza A virus
[5] = source organism: Mammarenavirus whitewaterense
[6] = source organism: Mammarenavirus machupoense
[7] = source organism: Mammarenavirus brazilense

| Sequence | IC50 (HLA-A*68:02; [2]) | IC50 (HLA-A*02:01; [2]) | IC50 (HLA-A*02:03; [2]) | IC50 (HLA-A*02:02; [2]) | IC50 (HLA-A*02:06; [2]) | further results |
| --- | --- | --- | --- | --- | --- | --- |
| FMLNVSYLC |  |  |  |  |  | IC50 (HLA-A*68:02; [1]): 8.48 µM; IC50 (HLA-A*02:01; [1]): 1.05 µM; IC50 (HLA-A*02:03; [1]): 1.26 µM; IC50 (HLA-A*02:02; [1]): 0.196 µM; IC50 (HLA-A*02:06; [1]): 0.932 µM |
| ILFQNNDINA | 9.98 µM | 0.549 µM | 0.407 µM | 0.023 µM | 3.18 µM |  |
| VTYNIKPVIV | 8.34 µM | 3 µM | 0.116 µM | 4.92 µM | 0.358 µM |  |
| YLLGDSDSVA | 10.7 µM | 0.02 µM | 0.023 µM | 0.002 µM | 0.135 µM |  |
| GLLYFILFFV |  |  |  |  |  | IC50 (HLA-A*68:02; [3]): 23.2 µM; IC50 (HLA-A*02:01; [3]): 0.051 µM; IC50 (HLA-A*02:03; [3]): 0.187 µM; IC50 (HLA-A*02:02; [3]): 0.141 µM; IC50 (HLA-A*02:06; [3]): 0.678 µM |
| ALLFLMSFT |  |  |  |  |  | IC50 (HLA-A*68:02; source organism: SARS-CoV1): 16 µM; IC50 (HLA-A*02:01; source organism: SARS-CoV1): 0.406 µM; IC50 (HLA-A*02:03; source organism: SARS-CoV1): 1.99 µM; IC50 (HLA-A*02:02; source organism: SARS-CoV1): 2.83 µM; IC50 (HLA-A*02:06; source organism: SARS-CoV1): 0.128 µM |
| RLIQNSITI |  |  |  |  |  | IC50 (HLA-A*68:02; [4]): ≥ 70 µM; IC50 (HLA-A*02:01; [4]): 0.084 µM; IC50 (HLA-A*02:03; [4]): 0.028 µM; IC50 (HLA-A*02:02; [4]): 0.137 µM; IC50 (HLA-A*02:06; [4]): 1.33 µM |
| LLEQLIENI | ≥ 70 µM | 1.57 µM | 1.96 µM | 0.702 µM | 0.539 µM |  |
| SINITPDDGL | 5.89 µM | 1.02 µM | 1.23 µM | 0.413 µM | 0.00034 µM |  |
| LLNMRDLIVT | 33.2 µM | 2.02 µM | 0.557 µM | 1.42 µM | 0.707 µM |  |
| WLKDSAIMVA | 10.1 µM | 0.673 µM | 1.32 µM | 0.015 µM | 4.84 µM |  |
| FLLFLVLIML |  |  |  |  |  | IC50 (HLA-A*68:02; source organism: SARS-CoV1): 5.95 µM; IC50 (HLA-A*02:01; source organism: SARS-CoV1): 0.14 µM; IC50 (HLA-A*02:03; source organism: SARS-CoV1): 1.38 µM; IC50 (HLA-A*02:02; source organism: SARS-CoV1): 1.57 µM; IC50 (HLA-A*02:06; source organism: SARS-CoV1): 2.92 µM |
| FLLRGPFEAS |  |  |  |  |  | IC50 (HLA-A*68:02; [5]): 38.9 µM; IC50 (HLA-A*02:01; [5]): 0.109 µM; IC50 (HLA-A*02:03; [5]): 0.084 µM; IC50 (HLA-A*02:02; [5]): 0.027 µM; IC50 (HLA-A*02:06; [5]): 0.07 µM |
| ALDCQIYGA |  |  |  |  |  | IC50 (HLA-A*68:02; [3]): ≥ 70 µM; IC50 (HLA-A*02:01; [3]): 0.143 µM; IC50 (HLA-A*02:03; [3]): 1.8 µM; IC50 (HLA-A*02:02; [3]): 1.59 µM; IC50 (HLA-A*02:06; [3]): 1.2 µM |
| LMLKATLLCV |  |  |  |  |  | IC50 (HLA-A*68:02; source organism: SARS-CoV1): 8.87 µM; IC50 (HLA-A*02:01; source organism: SARS-CoV1): 0.019 µM; IC50 (HLA-A*02:03; source organism: SARS-CoV1): 0.021 µM; IC50 (HLA-A*02:02; source organism: SARS-CoV1): 0.0034 µM; IC50 (HLA-A*02:06; source organism: SARS-CoV1): 0.063 µM |
| VLQAGITRV |  |  |  |  |  | IC50 (HLA-A*68:02; [3]): 35.6 µM; IC50 (HLA-A*02:01; [3]): 0.056 µM; IC50 (HLA-A*02:03; [3]): 0.012 µM; IC50 (HLA-A*02:02; [3]): 0.098 µM; IC50 (HLA-A*02:06; [3]): 0.393 µM |
| VLEKKVCAIT | ≥ 70 µM | 3.51 µM | 1.24 µM | 0.59 µM | 1.68 µM |  |
| GLCNYGGIL | ≥ 70 µM | 0.412 µM | 0.125 µM | 0.098 µM | 1.36 µM |  |

| Sequence | IC50 (HLA-A*68:02; [2]) | IC50 (HLA-A*02:01; [2]) | IC50 (HLA-A*02:03; [2]) | IC50 (HLA-A*02:02; [2]) | IC50 (HLA-A*02:06; [2]) | further results |
| --- | --- | --- | --- | --- | --- | --- |
| FLWLLWPVTL |  |  |  |  |  | IC50 (HLA-A*68:02; source organism: SARS-CoV1): 5.22 µM; IC50 (HLA-A*02:01; source organism: SARS-CoV1): 0.00098 µM; IC50 (HLA-A*02:03; source organism: SARS-CoV1): 0.014 µM; IC50 (HLA-A*02:02; source organism: SARS-CoV1): 0.0027 µM; IC50 (HLA-A*02:06; source organism: SARS-CoV1): 0.028 µM |
| ILDNLRCHSA | 12.8 µM | 0.063 µM | 0.069 µM | 0.972 µM | 0.297 µM |  |
| FLYIIKLVFL |  |  |  |  |  | IC50 (HLA-A*68:02; source organism: SARS-CoV1): 26.4 µM; IC50 (HLA-A*02:01; source organism: SARS-CoV1): 0.019 µM; IC50 (HLA-A*02:03; source organism: SARS-CoV1): 0.022 µM; IC50 (HLA-A*02:02; source organism: SARS-CoV1): 0.0073 µM; IC50 (HLA-A*02:06; source organism: SARS-CoV1): 0.865 µM |
| SIKMIYDLNA | 5.81 µM | 1.78 µM | 0.257 µM | 0.852 µM | 1.03 µM |  |
| TLLLWISVKV |  |  |  |  |  | IC50 (HLA-A*68:02; source organism: SARS-CoV1): 15.7 µM; IC50 (HLA-A*02:01; source organism: SARS-CoV1): 0.253 µM; IC50 (HLA-A*02:03; source organism: SARS-CoV1): 1.06 µM; IC50 (HLA-A*02:02; source organism: SARS-CoV1): 0.549 µM; IC50 (HLA-A*02:06; source organism: SARS-CoV1): 0.875 µM |
| WMMLLIAQA |  |  |  |  |  | IC50 (HLA-A*68:02; [3]): 15.8 µM; IC50 (HLA-A*02:01; [3]): 0.075 µM; IC50 (HLA-A*02:03; [3]): 0.047 µM; IC50 (HLA-A*02:02; [3]): 0.053 µM; IC50 (HLA-A*02:06; [3]): 0.712 µM |
| GLSQFTHTV |  |  |  |  |  | IC50 (HLA-A*68:02; [6]): 15.1 µM; IC50 (HLA-A*02:01; [6]): 0.018 µM; IC50 (HLA-A*02:03; [6]): 0.0077 µM; IC50 (HLA-A*02:02; [6]): 0.0053 µM; IC50 (HLA-A*02:06; [6]): 0.332 µM |
| GIADIRDKYM | 5.93 µM | 1.1 µM | 0.048 µM | 0.00069 µM | 1.78 µM |  |
| DMLLNVQTLI | 6.69 µM | 0.08 µM | 0.161 µM | 0.042 µM | 0.291 µM |  |
| GLLEWIFRA |  |  |  |  |  | IC50 (HLA-A*68:02; [7]): 53.1 µM; IC50 (HLA-A*02:01; [7]): 0.0012 µM; IC50 (HLA-A*02:03; [7]): 0.226 µM; IC50 (HLA-A*02:02; [7]): 0.022 µM; IC50 (HLA-A*02:06; [7]): 0.0071 µM |
| PTILATLNTL | 9.74 µM | 1.34 µM | 0.13 µM | 0.374 µM | 0.771 µM |  |
| SLTQVKELGI | 7.15 µM | 0.21 µM | 0.075 µM | 0.0098 µM | 0.157 µM |  |
| DLLFNEKLKV | 9.97 µM | 0.149 µM | 0.317 µM | 0.357 µM | 2.02 µM |  |
| ILDNAAKYV | 22.7 µM | 0.014 µM | 0.261 µM | 0.126 µM | 1.81 µM |  |
| KIILFQNNDI | 17.2 µM | 3.66 µM | 2 µM | 1.61 µM | 2.17 µM |  |
| KLLNMRDLIV | ≥ 70 µM | 0.0011 µM | 0.029 µM | 0.194 µM | 0.0028 µM |  |
| KLLNMRDLI | 30.2 µM | 0.018 µM | 0.329 µM | 0.496 µM | 0.044 µM |  |
